The results in this text go back to US20260209311A1 (published 2026).

The Kd is the free concentration of one partner at which half of the binding sites on the other are occupied at equilibrium, for simple one-to-one binding. A higher Kd goes with lower affinity.

The target in this assay is GPR75-GFP10-11 modified protein complex (UniProt O95800 1-395; P42212 3-196 = GFP). Briefly: SPR; steady state affinity. Background: SPR reads the build-up and loss of mass on a sensor chip optically.

B1: CCL5 ligand (ligand)
chain: SPYSSDTTPCCFAYIARPLPRAHIKEYFYTSGKCSNPAVVFVTRKNRQVCANPEKKWVREYINSLEMS
On to B1, for which the equilibrium dissociation constant (Kd) is 0.388 nM.
